Numbered stars: 1 amine (or outer) side, 2 acyl side, 3 side chain; on linkers, the order of the positions; unused ones are H or OH. Bridge positions count the residues as written; N and C are the ends. Side chains are listed from the residue outwards. Ends that are not written are not given here. * marks the point of attachment. C20 diacid = O=C(O)CCCCCCCCCCCCCCCCCCC(=O)*; γGlu = O=C(O)[C@H](CCC(=O)[*:2])N[*:1]
T1: rat calcitonin receptor (rat, UniProt P32214 25-516)
T1 construct: whole, on cells; Membranes prepared from transiently transfected BHK tk'ts 13 cells; also called rCTR; rat calcitonin (a) receptor
T1 sequence (looked up): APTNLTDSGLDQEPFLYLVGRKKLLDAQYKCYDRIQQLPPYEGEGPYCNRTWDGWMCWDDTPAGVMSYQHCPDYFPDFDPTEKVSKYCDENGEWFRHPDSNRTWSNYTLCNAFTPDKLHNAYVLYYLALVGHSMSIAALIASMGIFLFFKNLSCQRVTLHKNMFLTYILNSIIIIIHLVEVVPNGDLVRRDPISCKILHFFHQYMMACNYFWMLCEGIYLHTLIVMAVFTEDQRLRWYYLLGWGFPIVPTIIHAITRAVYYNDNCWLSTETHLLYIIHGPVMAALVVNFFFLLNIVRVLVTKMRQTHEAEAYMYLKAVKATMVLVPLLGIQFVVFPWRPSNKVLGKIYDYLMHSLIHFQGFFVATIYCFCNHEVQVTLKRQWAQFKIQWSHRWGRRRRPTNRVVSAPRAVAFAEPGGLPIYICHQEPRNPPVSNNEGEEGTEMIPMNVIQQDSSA

T2: human calcitonin receptor (human, UniProt P30988 25-474)
T2 construct: whole, on cells; Membranes from stably transfected BHK cells; also called hCTR; hCT
T2 sequence (looked up): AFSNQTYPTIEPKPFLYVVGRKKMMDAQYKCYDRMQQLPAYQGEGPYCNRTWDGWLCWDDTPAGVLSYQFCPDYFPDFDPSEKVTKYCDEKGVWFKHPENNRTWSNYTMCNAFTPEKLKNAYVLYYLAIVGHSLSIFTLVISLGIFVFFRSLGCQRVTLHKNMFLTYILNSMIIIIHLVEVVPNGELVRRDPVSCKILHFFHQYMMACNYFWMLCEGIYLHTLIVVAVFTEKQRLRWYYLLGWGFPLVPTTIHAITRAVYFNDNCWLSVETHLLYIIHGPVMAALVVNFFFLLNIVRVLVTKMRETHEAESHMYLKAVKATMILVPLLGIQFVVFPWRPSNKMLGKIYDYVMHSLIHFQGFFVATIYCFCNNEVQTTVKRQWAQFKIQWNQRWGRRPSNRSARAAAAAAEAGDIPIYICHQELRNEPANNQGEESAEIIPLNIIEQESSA

T3: rat amylin receptor (rat calcitonin receptor + rat RAMP 3) (rat, UniProt P32214 25-516; Q9JJ73 23-147)
T3 construct: whole, on cells; Membranes prepared from transiently transfected BHK tk'ts 13 cells; also called rAmylin-R; rat amylin 3(a) receptor
T3 sequence (looked up) 1: T1 sequence (looked up)
T3 sequence (looked up) 2: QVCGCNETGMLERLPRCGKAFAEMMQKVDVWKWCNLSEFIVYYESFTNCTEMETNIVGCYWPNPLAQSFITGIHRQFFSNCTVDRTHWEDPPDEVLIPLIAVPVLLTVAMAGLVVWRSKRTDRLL

B1: N^-1-[(4S)-4-carboxy-4-(19-carboxynonadecanoylamino)butanoyl]-Gly[Arg1,Ala14,Arg17,Pro21,Pro27,His34]-h-amylin (peptide)
peptide: {C20 diacid-γGlu}-GRCNTATCATQRLAAFLRHSSPNFGAIPSSTNVGHNTY-NH2
modifications: disulfide 3-8
SMILES: CC[C@H](C)[C@H](NC(=O)[C@H](C)NC(=O)CNC(=O)[C@H](Cc1ccccc1)NC(=O)[C@H](CC(N)=O)NC(=O)[C@@H]1CCCN1C(=O)[C@H](CO)NC(=O)[C@H](CO)NC(=O)[C@H](Cc1c[nH]cn1)NC(=O)[C@H](CCCNC(=N)N)NC(=O)[C@H](CC(C)C)NC(=O)[C@H](Cc1ccccc1)NC(=O)[C@H](C)NC(=O)[C@H](C)NC(=O)[C@H](CC(C)C)NC(=O)[C@H](CCCNC(=N)N)NC(=O)[C@H](CCC(N)=O)NC(=O)[C@@H](NC(=O)[C@H](C)NC(=O)[C@@H]1CSSC[C@H](NC(=O)[C@H](CCCNC(=N)N)NC(=O)CNC(=O)CC[C@H](NC(=O)CCCCCCCCCCCCCCCCCCC(=O)O)C(=O)O)C(=O)N[C@@H](CC(N)=O)C(=O)N[C@@H]([C@@H](C)O)C(=O)N[C@@H](C)C(=O)N[C@@H]([C@@H](C)O)C(=O)N1)[C@@H](C)O)C(=O)N1CCC[C@H]1C(=O)N[C@@H](CO)C(=O)N[C@@H](CO)C(=O)N[C@H](C(=O)N[C@@H](CC(N)=O)C(=O)N[C@H](C(=O)NCC(=O)N[C@@H](Cc1c[nH]cn1)C(=O)N[C@@H](CC(N)=O)C(=O)N[C@H](C(=O)N[C@@H](Cc1ccc(O)cc1)C(N)=O)[C@@H](C)O)C(C)C)[C@@H](C)O
B2: N^-1-[(4S)-4-carboxy-4-(19-carboxynonadecanoylamino)butanoyl]-Gly[Arg1,His14,Arg17,Pro21,Pro27,Pro34]-h-amylin (peptide)
peptide: {C20 diacid-γGlu}-GRCNTATCATQRLAHFLRHSSPNFGAIPSSTNVGPNTY-NH2
modifications: disulfide 3-8
SMILES: CC[C@H](C)[C@H](NC(=O)[C@H](C)NC(=O)CNC(=O)[C@H](Cc1ccccc1)NC(=O)[C@H](CC(N)=O)NC(=O)[C@@H]1CCCN1C(=O)[C@H](CO)NC(=O)[C@H](CO)NC(=O)[C@H](Cc1c[nH]cn1)NC(=O)[C@H](CCCNC(=N)N)NC(=O)[C@H](CC(C)C)NC(=O)[C@H](Cc1ccccc1)NC(=O)[C@H](Cc1c[nH]cn1)NC(=O)[C@H](C)NC(=O)[C@H](CC(C)C)NC(=O)[C@H](CCCNC(=N)N)NC(=O)[C@H](CCC(N)=O)NC(=O)[C@@H](NC(=O)[C@H](C)NC(=O)[C@@H]1CSSC[C@H](NC(=O)[C@H](CCCNC(=N)N)NC(=O)CNC(=O)CC[C@H](NC(=O)CCCCCCCCCCCCCCCCCCC(=O)O)C(=O)O)C(=O)N[C@@H](CC(N)=O)C(=O)N[C@@H]([C@@H](C)O)C(=O)N[C@@H](C)C(=O)N[C@@H]([C@@H](C)O)C(=O)N1)[C@@H](C)O)C(=O)N1CCC[C@H]1C(=O)N[C@@H](CO)C(=O)N[C@@H](CO)C(=O)N[C@H](C(=O)N[C@@H](CC(N)=O)C(=O)N[C@H](C(=O)NCC(=O)N1CCC[C@H]1C(=O)N[C@@H](CC(N)=O)C(=O)N[C@H](C(=O)N[C@@H](Cc1ccc(O)cc1)C(N)=O)[C@@H](C)O)C(C)C)[C@@H](C)O
B3: N{-1}-[(4S)-4-carboxy-4-(19-carboxynonadecanoylamino)butanoyl]-Gly[Arg1,His14,Arg17,Pro21,Pro27]-h-amylin (peptide)
peptide: {C20 diacid-γGlu}-GRCNTATCATQRLAHFLRHSSPNFGAIPSSTNVGSNTY-NH2
modifications: disulfide 3-8
SMILES: CC[C@H](C)[C@H](NC(=O)[C@H](C)NC(=O)CNC(=O)[C@H](Cc1ccccc1)NC(=O)[C@H](CC(N)=O)NC(=O)[C@@H]1CCCN1C(=O)[C@H](CO)NC(=O)[C@H](CO)NC(=O)[C@H](Cc1c[nH]cn1)NC(=O)[C@H](CCCNC(=N)N)NC(=O)[C@H](CC(C)C)NC(=O)[C@H](Cc1ccccc1)NC(=O)[C@H](Cc1c[nH]cn1)NC(=O)[C@H](C)NC(=O)[C@H](CC(C)C)NC(=O)[C@H](CCCNC(=N)N)NC(=O)[C@H](CCC(N)=O)NC(=O)[C@@H](NC(=O)[C@H](C)NC(=O)[C@@H]1CSSC[C@H](NC(=O)[C@H](CCCNC(=N)N)NC(=O)CNC(=O)CC[C@H](NC(=O)CCCCCCCCCCCCCCCCCCC(=O)O)C(=O)O)C(=O)N[C@@H](CC(N)=O)C(=O)N[C@@H]([C@@H](C)O)C(=O)N[C@@H](C)C(=O)N[C@@H]([C@@H](C)O)C(=O)N1)[C@@H](C)O)C(=O)N1CCC[C@H]1C(=O)N[C@@H](CO)C(=O)N[C@@H](CO)C(=O)N[C@H](C(=O)N[C@@H](CC(N)=O)C(=O)N[C@H](C(=O)NCC(=O)N[C@@H](CO)C(=O)N[C@@H](CC(N)=O)C(=O)N[C@H](C(=O)N[C@@H](Cc1ccc(O)cc1)C(N)=O)[C@@H](C)O)C(C)C)[C@@H](C)O
notes: also called compound 99
B4: N^ε1-[(4S)-4-carboxy-4-(19-carboxynonadecanoylamino)butanoyl]-[Glu14,Arg17,Pro21,Pro27,Pro34,Glu35]-h-amylin (peptide)
peptide: K([γGlu-C20 diacid])CNTATCATQRLAEFLRHSSPNFGAIPSSTNVGPETY-NH2
modifications: disulfide 2-7; N-terminus assumed
SMILES: CC[C@H](C)[C@H](NC(=O)[C@H](C)NC(=O)CNC(=O)[C@H](Cc1ccccc1)NC(=O)[C@H](CC(N)=O)NC(=O)[C@@H]1CCCN1C(=O)[C@H](CO)NC(=O)[C@H](CO)NC(=O)[C@H](Cc1c[nH]cn1)NC(=O)[C@H](CCCNC(=N)N)NC(=O)[C@H](CC(C)C)NC(=O)[C@H](Cc1ccccc1)NC(=O)[C@H](CCC(=O)O)NC(=O)[C@H](C)NC(=O)[C@H](CC(C)C)NC(=O)[C@H](CCCNC(=N)N)NC(=O)[C@H](CCC(N)=O)NC(=O)[C@@H](NC(=O)[C@H](C)NC(=O)[C@@H]1CSSC[C@H](NC(=O)[C@@H](N)CCCCNC(=O)CC[C@H](NC(=O)CCCCCCCCCCCCCCCCCCC(=O)O)C(=O)O)C(=O)N[C@@H](CC(N)=O)C(=O)N[C@@H]([C@@H](C)O)C(=O)N[C@@H](C)C(=O)N[C@@H]([C@@H](C)O)C(=O)N1)[C@@H](C)O)C(=O)N1CCC[C@H]1C(=O)N[C@@H](CO)C(=O)N[C@@H](CO)C(=O)N[C@H](C(=O)N[C@@H](CC(N)=O)C(=O)N[C@H](C(=O)NCC(=O)N1CCC[C@H]1C(=O)N[C@@H](CCC(=O)O)C(=O)N[C@H](C(=O)N[C@@H](Cc1ccc(O)cc1)C(N)=O)[C@@H](C)O)C(C)C)[C@@H](C)O

Biological target: T1, rat calcitonin receptor
Test: ratio of IC50 on rat calcitonin receptor to IC50 on rat amylin receptor

Row | Ratio rCT/rAmylin binding | Binder
1 | 60.9 | B1
2 | 129 | {C20 diacid-γGlu}-GRCNTATCATQRLAAFLRHSSPNFGAIPSSTNVGPNTY-NH2 (disulfide 3-8)
3 | 97.7 | B2
4 | 79.8 | B3
5 | 63.2 | B4

Biological target: T2, human calcitonin receptor
Test: ratio of IC50 on human calcitonin receptor to IC50 on human amylin receptor
Procedure, shortened: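 Scintillation proximity competition binding on cell membranes at 35 ng/μL with SPA beads, in 50 mM Hepes pH 7.4, 1 mM CaCl2, 5 mM MgCl₂, 0.1% OA, 0.02% Tween20. Incubated 120 min at 25° C with shaking. IC₅₀ from one-site competition fit.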

Row | Ratio hCT/hAmylin binding | Binder
6 | 68.6 | B1
7 | 26.5 | {C20 diacid-γGlu}-GRCNTATCATQRLAAFLRHSSPNFGAIPSSTNVGPNTY-NH2 (disulfide 3-8)
8 | 36.2 | B2
9 | 100 | B3
10 | 13.3 | B4

Biological target: T3, rat amylin receptor (rat calcitonin …)
Test: SPA competition vs 125I-rat amylin, membranes (Assay VI)

Row | IC50 [nM] | Binder
11 | 8.07 | B1
12 | 0.436 | {C20 diacid-γGlu}-GRCNTATCATQRLAAFLRHSSPNFGAIPSSTNVGPNTY-NH2 (disulfide 3-8)
13 | 0.674 | B2
14 | 2.7 | B3
15 | 0.164 | B4

Biological target: T1, rat calcitonin receptor
Test: SPA competition vs 125I-calcitonin, membranes (Assay VIII)

Row | IC50 [nM] | Binder
16 | 492 | B1
17 | 56.3 | {C20 diacid-γGlu}-GRCNTATCATQRLAAFLRHSSPNFGAIPSSTNVGPNTY-NH2 (disulfide 3-8)
18 | 65.9 | B2
19 | 216 | B3
20 | 10.4 | B4

Reference: patent publication US20140087995A1 (published 2014)
